± gives the standard deviation of the averaged measurements.
What was measured:
Saccharomyces cerevisiae [1] = assay: protein stability index of tFT-peptide fusion (C-terminal peptide) (PSI (0-1 scale)); higher = more stable (slower turnover); conditions: genetic background: wild type; temperature: 30 C
Saccharomyces cerevisiae [2] = assay: as above
Procedure: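 MPS profiling in S. cerevisiae of the tFT-X12 degron library: putative degron peptides plus stable controls, 12 aa, fused to the C-terminus of a sfGFP-mCherry timer. Cells are FACS-sorted into 8 mCherry/sfGFP bins and deep-sequenced. PSI runs from 0 (unstable) to 1 (stable). Backgrounds are wild type, das1Δ and doa10Δ at 30 °C, and wild type, das1Δ, cdc34-1 and cdc53-1 at 37 °C; 2-3 technical replicates each.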

[3] = genetic background: cdc34-1, temperature: 37 C
[4] = genetic background: cdc53-1, temperature: 37 C
[5] = genetic background: das1 deletion, temperature: 30 C
[6] = genetic background: das1 deletion, temperature: 37 C
[7] = genetic background: doa10 deletion, temperature: 30 C
[8] = genetic background: wild type, temperature: 30 C
[9] = genetic background: wild type, temperature: 37 C
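Note: PSI is a weighted mean of sequencing reads over stability bins, variants kept only with over 10 reads, mCherry proximal and sfGFP distal, peptide attached via GGGS linker.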

AMRTIFFPAFVS
protein stability index (Saccharomyces cerevisiae [1]): 0.28 ± 0.075
protein stability index (Saccharomyces cerevisiae [2]; [3]): 0.543 ± 0.033
protein stability index (Saccharomyces cerevisiae [2]; [4]): 0.708 ± 0.0082
protein stability index (Saccharomyces cerevisiae [2]; [5]): 0.655 ± 0.0093
protein stability index (Saccharomyces cerevisiae [2]; [6]): 0.743 ± 0.018
protein stability index (Saccharomyces cerevisiae [2]; [7]): 0.158 ± 0.014
protein stability index (Saccharomyces cerevisiae [2]; [8]): 0.157 ± 0.013
protein stability index (Saccharomyces cerevisiae [2]; [9]): 0.222 ± 0.0069

IPGGRPLLVEVR
protein stability index (Saccharomyces cerevisiae [1]): 0.426 ± 0.035
protein stability index (Saccharomyces cerevisiae [2]; [3]): 0.339 ± 0.02
protein stability index (Saccharomyces cerevisiae [2]; [4]): 0.384 ± 0.018
protein stability index (Saccharomyces cerevisiae [2]; [5]): 0.254 ± 0.044
protein stability index (Saccharomyces cerevisiae [2]; [6]): 0.518 ± 0.074
protein stability index (Saccharomyces cerevisiae [2]; [7]): 0.216 ± 0.0041
protein stability index (Saccharomyces cerevisiae [2]; [8]): 0.264 ± 0.033
protein stability index (Saccharomyces cerevisiae [2]; [9]): 0.439 ± 0.015

LFVVFVLLTFFV
protein stability index (Saccharomyces cerevisiae [1]): 0.279 ± 0.089
protein stability index (Saccharomyces cerevisiae [2]; [3]): 0.231 ± 0.039
protein stability index (Saccharomyces cerevisiae [2]; [4]): 0.253 ± 0.0056
protein stability index (Saccharomyces cerevisiae [2]; [5]): 0.243 ± 0.032
protein stability index (Saccharomyces cerevisiae [2]; [6]): 0.337 ± 0.014
protein stability index (Saccharomyces cerevisiae [2]; [7]): 0.207 ± 0.02
protein stability index (Saccharomyces cerevisiae [2]; [8]): 0.217 ± 0.031
protein stability index (Saccharomyces cerevisiae [2]; [9]): 0.29 ± 0.011

GVGHAWHYFCVC
protein stability index (Saccharomyces cerevisiae [1]): 0.357 ± 0.025
protein stability index (Saccharomyces cerevisiae [2]; [3]): 0.614 ± 0.044
protein stability index (Saccharomyces cerevisiae [2]; [4]): 0.7347 ± 0.0032
protein stability index (Saccharomyces cerevisiae [2]; [5]): 0.608 ± 0.018
protein stability index (Saccharomyces cerevisiae [2]; [6]): 0.74764 ± 0.00017
protein stability index (Saccharomyces cerevisiae [2]; [7]): 0.197 ± 0.017
protein stability index (Saccharomyces cerevisiae [2]; [8]): 0.247 ± 0.021
protein stability index (Saccharomyces cerevisiae [2]; [9]): 0.431 ± 0.0045

TLPIWLRVLIFG
protein stability index (Saccharomyces cerevisiae [1]): 0.404 ± 0.032
protein stability index (Saccharomyces cerevisiae [2]; [3]): 0.341 ± 0.066
protein stability index (Saccharomyces cerevisiae [2]; [4]): 0.342 ± 0.038
protein stability index (Saccharomyces cerevisiae [2]; [5]): 0.295 ± 0.026
protein stability index (Saccharomyces cerevisiae [2]; [6]): 0.456 ± 0.0082
protein stability index (Saccharomyces cerevisiae [2]; [7]): 0.2762 ± 0.002
protein stability index (Saccharomyces cerevisiae [2]; [8]): 0.29 ± 0.0033
protein stability index (Saccharomyces cerevisiae [2]; [9]): 0.426 ± 0.014

APPPLFLIVLHL
protein stability index (Saccharomyces cerevisiae [1]): 0.424 ± 0.018
protein stability index (Saccharomyces cerevisiae [2]; [3]): 0.469 ± 0.0062
protein stability index (Saccharomyces cerevisiae [2]; [4]): 0.565 ± 0.0062
protein stability index (Saccharomyces cerevisiae [2]; [5]): 0.399 ± 0.036
protein stability index (Saccharomyces cerevisiae [2]; [6]): 0.604 ± 0.028
protein stability index (Saccharomyces cerevisiae [2]; [7]): 0.324 ± 0.019
protein stability index (Saccharomyces cerevisiae [2]; [8]): 0.3 ± 0.011
protein stability index (Saccharomyces cerevisiae [2]; [9]): 0.521 ± 0.026

GVVWPLGWVWVE
protein stability index (Saccharomyces cerevisiae [1]): 0.527 ± 0.05
protein stability index (Saccharomyces cerevisiae [2]; [3]): 0.699 ± 0.016
protein stability index (Saccharomyces cerevisiae [2]; [4]): 0.7315 ± 0.0022
protein stability index (Saccharomyces cerevisiae [2]; [5]): 0.614 ± 0.012
protein stability index (Saccharomyces cerevisiae [2]; [6]): 0.7383 ± 0.0066
protein stability index (Saccharomyces cerevisiae [2]; [7]): 0.368 ± 0.014
protein stability index (Saccharomyces cerevisiae [2]; [8]): 0.421 ± 0.025
protein stability index (Saccharomyces cerevisiae [2]; [9]): 0.615 ± 0.0074

WCVRRVRFVMGC
protein stability index (Saccharomyces cerevisiae [1]): 0.31 ± 0.0046
protein stability index (Saccharomyces cerevisiae [2]; [3]): 0.414 ± 0.019
protein stability index (Saccharomyces cerevisiae [2]; [4]): 0.458 ± 0.05
protein stability index (Saccharomyces cerevisiae [2]; [5]): 0.316 ± 0.024
protein stability index (Saccharomyces cerevisiae [2]; [6]): 0.479 ± 0.0081
protein stability index (Saccharomyces cerevisiae [2]; [7]): 0.2183 ± 0.0013
protein stability index (Saccharomyces cerevisiae [2]; [8]): 0.234 ± 0.027
protein stability index (Saccharomyces cerevisiae [2]; [9]): 0.378 ± 0.013

RIIKIRAISINL
protein stability index (Saccharomyces cerevisiae [1]): 0.501 ± 0.022
protein stability index (Saccharomyces cerevisiae [2]; [3]): 0.575 ± 0.062
protein stability index (Saccharomyces cerevisiae [2]; [4]): 0.66 ± 0.065
protein stability index (Saccharomyces cerevisiae [2]; [5]): 0.523 ± 0.023
protein stability index (Saccharomyces cerevisiae [2]; [6]): 0.607 ± 0.061
protein stability index (Saccharomyces cerevisiae [2]; [7]): 0.454 ± 0.03
protein stability index (Saccharomyces cerevisiae [2]; [8]): 0.468 ± 0.016
protein stability index (Saccharomyces cerevisiae [2]; [9]): 0.609 ± 0.03

FCIYLCLSTSIT
protein stability index (Saccharomyces cerevisiae [1]): 0.374 ± 0.084
protein stability index (Saccharomyces cerevisiae [2]; [3]): 0.0795 ± 0.0063
protein stability index (Saccharomyces cerevisiae [2]; [4]): 0.221 ± 0.0083
protein stability index (Saccharomyces cerevisiae [2]; [5]): 0.14 ± 0.036
protein stability index (Saccharomyces cerevisiae [2]; [6]): 0.306 ± 0.025
protein stability index (Saccharomyces cerevisiae [2]; [7]): 0.119 ± 0.0062
protein stability index (Saccharomyces cerevisiae [2]; [8]): 0.129 ± 0.027
protein stability index (Saccharomyces cerevisiae [2]; [9]): 0.247 ± 0.0029

VVFVFIDLGLCV
protein stability index (Saccharomyces cerevisiae [1]): 0.266 ± 0.007
protein stability index (Saccharomyces cerevisiae [2]; [3]): 0.187 ± 0.0053
protein stability index (Saccharomyces cerevisiae [2]; [4]): 0.326 ± 0.035
protein stability index (Saccharomyces cerevisiae [2]; [5]): 0.243 ± 0.028
protein stability index (Saccharomyces cerevisiae [2]; [6]): 0.423 ± 0.0072
protein stability index (Saccharomyces cerevisiae [2]; [7]): 0.188 ± 0.019
protein stability index (Saccharomyces cerevisiae [2]; [8]): 0.223 ± 0.018
protein stability index (Saccharomyces cerevisiae [2]; [9]): 0.4359 ± 0.0027

EGREGGGRGEVL
protein stability index (Saccharomyces cerevisiae [2]; [3]): 0.455 ± 0.011
protein stability index (Saccharomyces cerevisiae [2]; [4]): 0.589 ± 0.04
protein stability index (Saccharomyces cerevisiae [2]; [5]): 0.471 ± 0.029
protein stability index (Saccharomyces cerevisiae [2]; [6]): 0.496 ± 0.03
protein stability index (Saccharomyces cerevisiae [2]; [7]): 0.482 ± 0.024
protein stability index (Saccharomyces cerevisiae [2]; [8]): 0.479 ± 0.011
protein stability index (Saccharomyces cerevisiae [2]; [9]): 0.472 ± 0.013

APGLLPPCLLVV
protein stability index (Saccharomyces cerevisiae [2]; [3]): 0.374 ± 0.033
protein stability index (Saccharomyces cerevisiae [2]; [4]): 0.387 ± 0.013
protein stability index (Saccharomyces cerevisiae [2]; [5]): 0.307 ± 0.045
protein stability index (Saccharomyces cerevisiae [2]; [6]): 0.458 ± 0.014
protein stability index (Saccharomyces cerevisiae [2]; [7]): 0.263 ± 0.0047
protein stability index (Saccharomyces cerevisiae [2]; [8]): 0.3 ± 0.02
protein stability index (Saccharomyces cerevisiae [2]; [9]): 0.389 ± 0.0066

GGRREWCRGGGV
protein stability index (Saccharomyces cerevisiae [2]; [3]): 0.635 ± 0.11
protein stability index (Saccharomyces cerevisiae [2]; [4]): 0.746 ± 0.034
protein stability index (Saccharomyces cerevisiae [2]; [5]): 0.555 ± 0.029
protein stability index (Saccharomyces cerevisiae [2]; [6]): 0.695 ± 0.03
protein stability index (Saccharomyces cerevisiae [2]; [7]): 0.544 ± 0.0089
protein stability index (Saccharomyces cerevisiae [2]; [8]): 0.546 ± 0.015
protein stability index (Saccharomyces cerevisiae [2]; [9]): 0.708 ± 0.03

SSLRATLLIRAV
protein stability index (Saccharomyces cerevisiae [2]; [3]): 0.543 ± 0.023
protein stability index (Saccharomyces cerevisiae [2]; [4]): 0.564 ± 0.011
protein stability index (Saccharomyces cerevisiae [2]; [5]): 0.44 ± 0.019
protein stability index (Saccharomyces cerevisiae [2]; [6]): 0.584 ± 0.0032
protein stability index (Saccharomyces cerevisiae [2]; [7]): 0.352 ± 0.025
protein stability index (Saccharomyces cerevisiae [2]; [8]): 0.371 ± 0.032
protein stability index (Saccharomyces cerevisiae [2]; [9]): 0.5171 ± 0.0041

RWCLVWGGVWGV
protein stability index (Saccharomyces cerevisiae [2]; [3]): 0.593 ± 0.03
protein stability index (Saccharomyces cerevisiae [2]; [4]): 0.68 ± 0.025
protein stability index (Saccharomyces cerevisiae [2]; [5]): 0.494 ± 0.029
protein stability index (Saccharomyces cerevisiae [2]; [6]): 0.674 ± 0.02
protein stability index (Saccharomyces cerevisiae [2]; [7]): 0.486 ± 0.013
protein stability index (Saccharomyces cerevisiae [2]; [8]): 0.5 ± 0.017
protein stability index (Saccharomyces cerevisiae [2]; [9]): 0.645 ± 0.011

FVVVVVWVSRGL
protein stability index (Saccharomyces cerevisiae [2]; [3]): 0.174 ± 0.0059
protein stability index (Saccharomyces cerevisiae [2]; [4]): 0.399 ± 0.05
protein stability index (Saccharomyces cerevisiae [2]; [5]): 0.214 ± 0.036
protein stability index (Saccharomyces cerevisiae [2]; [6]): 0.423 ± 0.008
protein stability index (Saccharomyces cerevisiae [2]; [7]): 0.172 ± 0.029
protein stability index (Saccharomyces cerevisiae [2]; [8]): 0.196 ± 0.048
protein stability index (Saccharomyces cerevisiae [2]; [9]): 0.383 ± 0.023

VLLCGRMVVVEW
protein stability index (Saccharomyces cerevisiae [2]; [3]): 0.0831 ± 0.0095
protein stability index (Saccharomyces cerevisiae [2]; [4]): 0.163 ± 0.0037
protein stability index (Saccharomyces cerevisiae [2]; [5]): 0.163 ± 0.01
protein stability index (Saccharomyces cerevisiae [2]; [6]): 0.143 ± 0.011
protein stability index (Saccharomyces cerevisiae [2]; [7]): 0.196 ± 0.032
protein stability index (Saccharomyces cerevisiae [2]; [8]): 0.153 ± 0.014
protein stability index (Saccharomyces cerevisiae [2]; [9]): 0.132 ± 0.021

WVFYAVRWRTWN
protein stability index (Saccharomyces cerevisiae [2]; [3]): 0.254 ± 0.015
protein stability index (Saccharomyces cerevisiae [2]; [4]): 0.44 ± 0.0092
protein stability index (Saccharomyces cerevisiae [2]; [5]): 0.311 ± 0.037
protein stability index (Saccharomyces cerevisiae [2]; [6]): 0.54 ± 0.017
protein stability index (Saccharomyces cerevisiae [2]; [7]): 0.0632 ± 0.0063
protein stability index (Saccharomyces cerevisiae [2]; [8]): 0.066 ± 0.018
protein stability index (Saccharomyces cerevisiae [2]; [9]): 0.061 ± 0.0063

Reference: the supplement of paper PMC10724198
